The target in experiment [1] is T1, angiotensin converting enzyme (ACE), obtained from Sigma Chemicals. In words: cell-based or functional assay.
Experiment [2] deals with T1, angiotensin converting enzyme (ACE), …. In words: cell-based or functional assay. The source holds these as a separate data set.

As for ITP [tripeptide ITP (Ile-Thr-Pro), chemically synthesised], in experiment [1], the “IC50 value in µM, Modified Matsui assay (cleavage of Hip-His-Leu by ACE)” value (“IC50 value in µM, Modified Matsui assay” below) worked out at 10 µM and the “IC50 value in µM, at-line ACE assay (cleavage of HHL by ACE)” value (“IC50 value in µM, at-line ACE assay” for short) worked out at 50 µM.
In the case of MAP [tripeptide MAP (Met-Ala-Pro), chemically synthesised], in experiment [1], the “IC50 value in µM, Modified Matsui assay” value is 0.4 µM and the “IC50 value in µM, at-line ACE assay” value turned out to be 3.8 µM. Moreover, the “IC50 value in the Modified Matsui test” value in experiment [2] was found to be 0.5 µM.
For the molecule IPP [tripeptide IPP (Ile-Pro-Pro), chemically synthesised], in experiment [1], the “IC50 value in µM, Modified Matsui assay” value was 2 µM and the “IC50 value in µM, at-line ACE assay” value was 7.1 µM.
